Test [1] deals with core CoREST complex LSD1/HDAC1/CoREST1 (LHC) (UniProt O60341). Kind of test: enzyme inhibition (fluorogenic HDAC deacetylation assay); LHC (1 nM) pretreated 30 min on ice with inhibitor in 50 mM HEPES 7.5, 100 mM KCl, 100 uM InsP6, 0.2 mg/mL BSA; 50 uM fluorogenic peptide substrate, 37 C, 15 min; Ki = IC50/([S]/Km + 1), competitive model.
Test [2] has the same target. Nature of the test: enzyme inhibition (fluorogenic HDAC deacetylation assay); Dixon plot of LHC inhibition by H3K14Hd-modified nucleosomes versus peptide substrate.

The values below come from publication PMC6019071.

For the substance “H3K4me2K14Hd(1-34) synthetic H3 peptide (from UniProt P84233 2-35)”, the fold lower Ki than the corresponding Hd nucleosome in test [1] was found to be 30 fold.
Same read-out and setting: to “H3K4me2K9Hd(1-34) synthetic H3 peptide (from UniProt P84233 2-35)” belongs 30 fold.
For “H3K14Hd containing nucleosome (146 bp mononucleosome with semisynthetic H3K4me2K14Hd) (complex)”, the Ki turned out to be 35 nM in test [2] and 40 nM in test [1].
Take “H3K9Hd containing nucleosome (146 bp mononucleosome with semisynthetic H3K4me2K9Hd) (complex)”: in test [1], the Ki amounted to 60 nM.
Take “semisynthetic histone H3 H3K4me2K14Hd (from UniProt P84233 2-136) (natural protein)”: the fold lower Ki than the corresponding Hd nucleosome in test [1] worked out at 30 fold.

Usually Ki stands for a dissociation constant, usually derived from enzyme kinetics or from competition with a known ligand.
